Assay results from publication PMC10792529 (Proteins, 2023).
Values joined by “and” are separate entries in the source; they are usually repeats but may differ in a detail not shown here. Identical values can stand only once.

B2: human SUN1 SUN domain (domain or fragment)
chain: GITEAQARAIVNSALKLYSQDKTGMVDFALESGGGSILSTRCSETYETKTALMSLFGIPLWYFSQSPRVVIQPDIYPGNCWAFKGSQGYLVVRLSMMIHPAAFTLEHIPKTLSPTGNISSAPKDFAVYGLENEYQEEGQLLGQFTYDQDGESLQMFQALKRPDDTAFQIVELRIFSNWGHPEYTCLYRFRVHGEPVK

Columns and labels:
[1] = biological target: HucM, scaffold subunit of the [NiFe]-hydrogenase Huc (Mycobacterium smegmatis); assay: cryo-EM structure; 833 kDa Huc complex: 8 HucL, 8 HucS, 4 HucM
[2] = biological target: HucSL heterodimer (Mycobacterium smegmatis); assay: as above
[3] = biological target: cytosolic domain of the major export gate protein YscV (Yersinia enterocolitica); assay: crystal structure; 9:9:9 YscV:YscX:YscY complex, 4.1 Å, 18 copies of the 1:1:1 complex in the asymmetric unit
[4] = biological target: tyrosine O-methyltransferase MfnG from Streptomyces drozdowiczii (Streptomyces drozdowiczii); assay: crystal structure; MfnG with SAH and soaked L-Tyr; five crystal forms with one to four dimers per asymmetric unit
[5] = biological target: nudivirus polyhedrin (occlusion body protein of Tipula oleracea nudivirus) (Tipula oleracea nudivirus); assay: crystal structure
[6] = biological target: Mycobacterium smegmatis MceG (Mycobacterium smegmatis); assay: cryo-EM structure
human SUN1 SUN domain = biological target: B2; assay: crystal structure; SUN1-KASH6 complex, nine SUN domains and six KASH peptides; settings: both partners purified
[7] = biological target: T1, E. coli outer-membrane transporter FhuA (E. coli, UniProt P06971 34-747); assay: cryo-EM structure; settings: both partners purified
T1 sequence (looked up): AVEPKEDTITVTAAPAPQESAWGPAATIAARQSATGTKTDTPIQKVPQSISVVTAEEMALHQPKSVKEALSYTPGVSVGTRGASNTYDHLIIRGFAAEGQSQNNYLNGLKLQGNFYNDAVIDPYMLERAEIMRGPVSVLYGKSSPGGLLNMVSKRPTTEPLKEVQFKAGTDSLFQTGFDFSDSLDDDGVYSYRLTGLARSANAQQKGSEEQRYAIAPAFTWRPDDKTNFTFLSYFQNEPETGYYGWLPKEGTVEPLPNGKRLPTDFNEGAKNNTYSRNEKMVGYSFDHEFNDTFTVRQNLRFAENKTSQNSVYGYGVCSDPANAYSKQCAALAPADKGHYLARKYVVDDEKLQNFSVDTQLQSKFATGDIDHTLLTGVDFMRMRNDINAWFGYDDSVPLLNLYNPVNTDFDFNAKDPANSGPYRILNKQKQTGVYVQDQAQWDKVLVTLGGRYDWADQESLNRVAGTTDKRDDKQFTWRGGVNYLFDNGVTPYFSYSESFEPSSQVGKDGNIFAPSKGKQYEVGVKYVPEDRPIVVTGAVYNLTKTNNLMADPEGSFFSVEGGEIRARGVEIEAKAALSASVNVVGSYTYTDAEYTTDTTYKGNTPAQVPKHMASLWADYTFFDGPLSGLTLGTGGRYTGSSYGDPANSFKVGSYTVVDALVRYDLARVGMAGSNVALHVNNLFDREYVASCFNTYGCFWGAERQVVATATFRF

[8] = biological target: the molecule itself; assay: crystal structure; SUN1-KASH6 complex, nine SUN domains and six KASH peptides
[9] = biological target: phosphodiesterase domain of 2',3'-cyclic nucleotide 3'-phosphodiesterase (CNPase) (Mus musculus (assumed; species not …, UniProt P16330); assay: crystal structure; nanobodies co-crystallized with the phosphodiesterase domain of CNPase; settings: both partners purified
phosphodiesterase domain of 2',3'-cyclic nucleotide 3'-phosphodiesterase (CNPase) (Mus musculus, sequence (P16330 whole entry, looked up, the tested form may be a part): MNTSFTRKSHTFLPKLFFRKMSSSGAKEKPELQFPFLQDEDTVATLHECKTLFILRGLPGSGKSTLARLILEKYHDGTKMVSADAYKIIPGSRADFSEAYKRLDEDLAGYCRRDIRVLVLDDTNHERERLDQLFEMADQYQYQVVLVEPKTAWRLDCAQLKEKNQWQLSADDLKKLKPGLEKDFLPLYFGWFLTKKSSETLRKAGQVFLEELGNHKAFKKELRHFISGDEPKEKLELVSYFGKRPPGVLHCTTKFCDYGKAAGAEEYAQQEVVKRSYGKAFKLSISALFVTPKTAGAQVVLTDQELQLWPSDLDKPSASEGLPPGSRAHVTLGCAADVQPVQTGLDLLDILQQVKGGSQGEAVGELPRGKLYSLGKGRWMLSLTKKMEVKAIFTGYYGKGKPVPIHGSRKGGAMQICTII

## HucM, scaffold subunit of the [NiFe]-hydrogenase Huc (natural protein)
[1]
  stoichiometry N: 4

## HucSL heterodimer (complex)
[2]
  stoichiometry N: 2

## YscX:YscY heterodimer (complex)
[3]
  stoichiometry N (YscX:YscY complexes per YscV nonamer): 9

## tyrosine O-methyltransferase MfnG from Streptomyces drozdowiczii (enzyme)
[4]
  stoichiometry N: 2

## nudivirus polyhedrin (occlusion body protein of Tipula oleracea nudivirus) (natural protein)
[5]
  stoichiometry N: 2

## Mycobacterium smegmatis MceG (enzyme)
[6]
  stoichiometry N: 2

## cytosolic domain of the major export gate protein YscV (domain or fragment)
[3]
  stoichiometry N: 9

## TGQLFQKSVDAAPTQQEDSWTSLEHILWPFTRLRHNGPPPV [KASH6 peptide, the KASH domain of JAW1/LRMP]
Human SUN1 SUN domain
  stoichiometry N: 2 KASH6 peptides per SUN1 trimer

B1: Bacteriophage T5 Receptor Binding Protein RBPpb5 (natural protein)
chain: MSFFAGKLNNKSILSLRRGSGGDTNQHINPDSQTIFHSDMSHVIITETHSTGLRLDQGAGDYYWSEMPSRVTQLHNNDPNRVVLTEIEFSDGSRHMLSGMSMGVGAKAYGIINPQIMSQGGLKTQITASADLSLDVGYFNTGTSGTIPQKLRDGTGCQHMFGAFSGRRGFASSAMYLGGAALYKSAWSGSGYVVADAGTLTIPSDYVRHPGARNFGFNAIYVRGRSCNRVLYGMEGPNYTTGGAVQGASSSGALNFTYNPSNPESPKYSVGFARADPTNYAYWESMGDPNDSANGPIGIYSEHLGIYPSKITWYVTNLVYNGSGYNIDGGLFNGNDIKLSPREFIIKGVNVNNTSWKFINFIEKNFNVGNRADFRDVGCNLSKDSPSTGISGIATFGLPTTESNNAPSIKGGNVGGLHANVVSIYNFLPSASWYVSSNPPKIGNNYGDVWSENLLPLRLLGGSGSTILSGNIVFQGNGSVHVGTVGLDLNSSRNGAIVCTMEFIDDTWLSAGGIGCFNPTEMLSQGAEYGDSRFRIGGNTINKKLHQILSLPAGEYVPFFTIKGTVVNACKLQAAAYNPTPYWVSGLPGSVGQTGYYTLTYYMRNDGNNNISIWLDSSMSNIIGMKACLPNIKLIIQRLT
[7]
  binding result: binds

## B2
[8]
  stoichiometry N: 3 and 9

B3: nanobody 8C (VHH)
VHH: EVQLEESGGGLVQAGGSLTLSCAASGFTFDDYAMGWYRQAPGKERVGVSCISRTDGYTYYLDSVKGRFTISTDHAKHTVYLQMNNLKPDDTGLYYCAADADPEYGSRCPDPYYGMDYWGKGILVTVSS
[9]
  binding result: binds
